In publication doi:10.1101/2024.05.10.593530:

Target: Vibrio cholerae DdmD (Vibrio cholerae)
Assay: SEC-MALS

Vibrio cholerae DdmD (enzyme)
stoichiometry N: 2
